We go through two molecules from PMC9980132 (bioRxiv, 2023).

Test [1] concerns the target H2AK119Ub nucleosome (non-hydrolyzable, 187 bp Widom 601 DNA) (Xenopus | not stated) (UniProt P0CG48).
For test [2], the target named is T1, BAP1 (full-length human BAP1, residues 1-729) (human, UniProt Q92560 1-729).
T1 sequence: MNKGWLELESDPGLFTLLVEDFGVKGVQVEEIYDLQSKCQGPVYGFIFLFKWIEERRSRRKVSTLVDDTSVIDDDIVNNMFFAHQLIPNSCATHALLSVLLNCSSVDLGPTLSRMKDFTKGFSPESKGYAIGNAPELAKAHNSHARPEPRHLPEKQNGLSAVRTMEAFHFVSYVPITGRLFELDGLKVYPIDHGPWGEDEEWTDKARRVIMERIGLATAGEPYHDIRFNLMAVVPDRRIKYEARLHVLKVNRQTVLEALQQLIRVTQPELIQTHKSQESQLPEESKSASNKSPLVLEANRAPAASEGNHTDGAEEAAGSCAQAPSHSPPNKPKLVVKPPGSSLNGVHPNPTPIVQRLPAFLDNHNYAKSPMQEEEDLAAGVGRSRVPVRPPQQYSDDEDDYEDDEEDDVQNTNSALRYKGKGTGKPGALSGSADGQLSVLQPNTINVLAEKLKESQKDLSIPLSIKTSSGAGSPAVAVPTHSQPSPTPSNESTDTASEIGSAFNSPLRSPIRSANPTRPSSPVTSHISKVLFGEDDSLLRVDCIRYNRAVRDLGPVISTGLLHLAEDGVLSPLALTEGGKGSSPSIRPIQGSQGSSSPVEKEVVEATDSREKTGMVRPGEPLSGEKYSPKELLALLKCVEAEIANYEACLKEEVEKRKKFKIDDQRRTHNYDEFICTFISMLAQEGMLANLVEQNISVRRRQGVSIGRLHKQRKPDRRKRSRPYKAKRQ
As to the kind of experiment: cryo-EM structure.

H2AK119Ub nucleosome (non-hydrolyzable, 187 bp Widom 601 DNA) (Xenopus | not stated), sequence (P0CG48 whole entry, looked up, the tested form may be a part): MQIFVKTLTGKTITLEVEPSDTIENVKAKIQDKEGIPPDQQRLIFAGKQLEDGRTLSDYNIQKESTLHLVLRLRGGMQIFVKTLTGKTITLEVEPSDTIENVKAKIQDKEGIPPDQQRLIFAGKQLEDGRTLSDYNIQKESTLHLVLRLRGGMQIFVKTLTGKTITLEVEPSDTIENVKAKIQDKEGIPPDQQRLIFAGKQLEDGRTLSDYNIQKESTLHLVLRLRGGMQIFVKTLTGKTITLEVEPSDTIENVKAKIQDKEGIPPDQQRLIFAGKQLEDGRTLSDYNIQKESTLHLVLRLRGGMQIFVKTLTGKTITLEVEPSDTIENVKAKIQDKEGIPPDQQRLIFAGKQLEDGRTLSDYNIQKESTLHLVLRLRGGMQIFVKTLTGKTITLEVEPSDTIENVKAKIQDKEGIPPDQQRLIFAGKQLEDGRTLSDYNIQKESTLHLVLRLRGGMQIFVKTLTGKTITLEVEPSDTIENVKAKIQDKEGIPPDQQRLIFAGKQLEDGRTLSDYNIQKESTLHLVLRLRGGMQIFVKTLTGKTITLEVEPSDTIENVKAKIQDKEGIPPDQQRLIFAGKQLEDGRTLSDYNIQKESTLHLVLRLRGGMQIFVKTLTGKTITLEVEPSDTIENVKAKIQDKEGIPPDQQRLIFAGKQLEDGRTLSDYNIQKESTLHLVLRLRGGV

As for “BAP1 R56A/R57A/R59A/R60A in complex with wild-type ASXL1 DEUBAD (from UniProt Q92560;Q8IXJ9)”, in test [1], the kcat (turnover number) of deubiquitination of the H2AK119ub1 designer nucleosome is 0.015 s⁻¹.

B1: ASXL1 DEUBAD domain (residues 237-390) (domain or fragment)
chain: PATGQMKRNRGEEIDFETPGSILVNTNLRALINSRTFHALPSHFQQQLLFLLPEVDRQVGTDGLLRLSSSALNNEFFTHAAQSWRERLADGEFTHEMQVRIRQEMEKEKKVEQWKEKFFEDYYGQKLGLTKEESLQQNVGQEEAEIKSGLCVPG
For B1, the binding result in test [2] is listed as “binds”.
